The record followed here is paper PMC4191604 (Journal of Medicinal Chemistry, 2014).

Numbering of substitutions follows the chain as printed.

What all share (experiment): SPR
In general terms: In SPR one partner is held on a chip, and binding of the other changes the refractive index at the surface.

Assay [1] deals with T1, GBP1 GTPase (human GBP1, recombinant wild type) (human, UniProt P32455 1-592).
T1 sequence (looked up): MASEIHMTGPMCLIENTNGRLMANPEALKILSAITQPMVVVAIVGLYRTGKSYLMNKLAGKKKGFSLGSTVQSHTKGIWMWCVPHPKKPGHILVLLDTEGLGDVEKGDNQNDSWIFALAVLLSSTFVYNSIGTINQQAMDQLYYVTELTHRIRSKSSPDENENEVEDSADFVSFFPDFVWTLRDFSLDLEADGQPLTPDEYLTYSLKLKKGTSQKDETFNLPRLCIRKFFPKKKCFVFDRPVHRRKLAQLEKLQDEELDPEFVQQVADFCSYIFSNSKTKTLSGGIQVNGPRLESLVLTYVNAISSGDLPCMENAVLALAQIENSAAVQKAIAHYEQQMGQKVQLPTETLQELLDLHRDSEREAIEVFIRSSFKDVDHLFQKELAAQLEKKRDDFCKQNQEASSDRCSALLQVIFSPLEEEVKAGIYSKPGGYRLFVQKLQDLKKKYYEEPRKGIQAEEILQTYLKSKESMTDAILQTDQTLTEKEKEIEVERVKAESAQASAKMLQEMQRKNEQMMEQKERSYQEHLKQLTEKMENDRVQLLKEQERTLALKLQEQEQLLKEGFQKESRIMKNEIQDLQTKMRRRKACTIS

Assay [2] concerns the target T2, GBP1 mutant R48A (human, UniProt P32455 1-592, R48A).
T2 sequence (looked up): T1 sequence (looked up) with R48A

Assay [3] concerns the target T3, GBP1 mutant Q72A (human, UniProt P32455 1-592, Q72A).
T3 sequence (looked up): T1 sequence (looked up) with Q72A

Assay [4] addresses T4, GBP1 mutant D103N (human, UniProt P32455 1-592, D103N).
T4 sequence (looked up): T1 sequence (looked up) with D103N

B1: PIM1 (recombinant) (enzyme)
chain: not shown
Regarding B1, the Kd (in general, the constant that tells how readily two partners part at equilibrium) in assay [1] came out at 67 ± 20 nM; in assay [2], 290 ± 21 nM; in assay [3], 62 ± 2 nM; in assay [4], 21 ± 1 nM.
